Measurements: patent US20230113563A1 (SYSTIMMUNE, published 2023)

B1: human MICA (Acro, MIA-H5221) (ligand, UniProt Q29983 24-307, looked up)
chain: EPHSLRYNLTVLSWDGSVQSGFLTEVHLDGQPFLRCDRQKCRAKPQGQWAEDVLGNKTWDRETRDLTGNGKDLRMTLAHIKDQKEGLHSLQEIRVCEIHEDNSTRSSQHFYYDGELFLSQNLETKEWTMPQSSRAQTLAMNVRNFLKEDAMKTKTHYHAMHADCLQELRRYLKSGVVLRRTVPPMVNVTRSEASEGNITVTCRASGFYPWNITLSWRQDGVSLSHDTQQWGDVLPDGNGTYQTWVATRICQGEEQRFTCYMEHSGNHSTHPVPSGKVLVLQSHW
notes: Bought reagent used as analyte in solution; also called NKG2D ligand MICA

Assays:
[1] = molecular target: B1; test: BLI (Octet); GNC protein loaded on AHC sensors at 5 ug/ml; human MICA as analyte, 1:2 serial dilutions from 100 nM; global fit, 1:1 model
Description: (§1) To validate functionality of the NKG2D receptor in the D2 position, Octet binding was performed. GNC protein was loaded onto AHC sensors at 5 ug/ml, and subsequently bound to 1:2 serial dilutions (top concentration 100 nM) of human MICA (Acro, MIA-H5221).

[2] = molecular target: T1, SI-49P7; test: as above
T1 construct: Penta-specific GNC: same structure as SI-49P6, but with 4-1BB ligand trimer at D4 instead of the anti-4-1BB scFv
Description: as §1

T1 sequence (heavy, as listed by the source): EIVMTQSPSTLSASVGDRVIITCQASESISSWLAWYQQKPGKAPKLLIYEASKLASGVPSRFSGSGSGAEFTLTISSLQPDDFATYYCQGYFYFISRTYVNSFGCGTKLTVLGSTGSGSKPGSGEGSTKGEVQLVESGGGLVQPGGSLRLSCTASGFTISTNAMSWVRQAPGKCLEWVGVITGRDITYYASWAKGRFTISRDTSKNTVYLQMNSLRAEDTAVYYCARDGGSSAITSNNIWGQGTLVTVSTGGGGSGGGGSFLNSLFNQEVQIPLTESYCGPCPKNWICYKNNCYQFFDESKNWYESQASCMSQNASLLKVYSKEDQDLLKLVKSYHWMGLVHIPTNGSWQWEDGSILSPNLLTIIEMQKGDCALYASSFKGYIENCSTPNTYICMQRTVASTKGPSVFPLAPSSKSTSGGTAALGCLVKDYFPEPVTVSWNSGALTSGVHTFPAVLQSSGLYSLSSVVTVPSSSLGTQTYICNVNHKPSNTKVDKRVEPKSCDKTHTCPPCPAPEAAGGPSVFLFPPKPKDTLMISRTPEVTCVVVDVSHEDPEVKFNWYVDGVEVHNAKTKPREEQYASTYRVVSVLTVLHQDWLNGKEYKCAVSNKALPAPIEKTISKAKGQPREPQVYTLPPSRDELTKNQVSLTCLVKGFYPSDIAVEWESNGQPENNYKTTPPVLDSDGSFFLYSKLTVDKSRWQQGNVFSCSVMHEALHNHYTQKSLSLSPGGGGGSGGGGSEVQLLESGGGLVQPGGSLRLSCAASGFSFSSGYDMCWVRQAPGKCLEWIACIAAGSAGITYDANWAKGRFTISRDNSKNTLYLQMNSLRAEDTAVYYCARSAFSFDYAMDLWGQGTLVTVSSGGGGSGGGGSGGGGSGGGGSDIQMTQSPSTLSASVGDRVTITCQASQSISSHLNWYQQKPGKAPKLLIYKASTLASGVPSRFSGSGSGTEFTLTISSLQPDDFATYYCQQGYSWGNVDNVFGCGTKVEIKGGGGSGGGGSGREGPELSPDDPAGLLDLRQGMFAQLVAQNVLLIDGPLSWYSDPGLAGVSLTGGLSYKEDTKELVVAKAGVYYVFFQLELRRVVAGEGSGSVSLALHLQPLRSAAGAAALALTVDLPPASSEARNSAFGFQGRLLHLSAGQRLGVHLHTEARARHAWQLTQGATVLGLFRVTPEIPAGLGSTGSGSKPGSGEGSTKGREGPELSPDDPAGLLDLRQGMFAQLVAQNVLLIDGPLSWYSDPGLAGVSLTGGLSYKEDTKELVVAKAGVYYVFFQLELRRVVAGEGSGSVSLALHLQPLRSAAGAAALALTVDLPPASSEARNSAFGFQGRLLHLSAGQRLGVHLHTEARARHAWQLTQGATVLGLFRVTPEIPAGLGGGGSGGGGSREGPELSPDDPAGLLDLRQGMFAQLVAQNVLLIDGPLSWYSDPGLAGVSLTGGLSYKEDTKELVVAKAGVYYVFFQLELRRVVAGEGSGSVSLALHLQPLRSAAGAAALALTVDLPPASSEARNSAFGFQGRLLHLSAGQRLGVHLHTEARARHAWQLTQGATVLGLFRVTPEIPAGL

Binder | Kd [1] [nM] | Kd [2] [nM]
SI-49R19 (bispecific antibody, Bispecific GNC: anti-CD3 scFv (αCD3-alt) at D1 and NKG2D at D2) heavy: not shown light: FLNSLFNQEVQIPLTESYCGPCPKNWICYKNNCYQFFDESKNWYESQASCMSQNASLLKVYSKEDQDLLKLVKSYHWMGLVHIPTNGSWQWEDGSILSPNLLTIIEMQKGDCALYASSFKGYIENCSTPNTYICMQRTVRTVAAPSVFIFPPSDEQLKSGTASVVCLLNNFYPREAKVQWKVDNALQSGNSQESVTEQDSKDSTYSLSSTLTLSKADYEKHKVYACEVTHQGLSSPVTKSFNRGEC | 3.93 | 
SI-49R23 (Fc fusion, Monospecific protein with NKG2D directly fused to the antibody Fc domain; Two copies are inferred from the Fc dimer) FLNSLFNQEVQIPLTESYCGPCPKNWICYKNNCYQFFDESKNWYESQASCMSQNASLLKVYSKEDQDLLKLVKSYHWMGLVHIPTNGSWQWEDGSILSPNLLTIIEMQKGDCALYASSFKGYIENCSTPNTYICMQRTVASEPKSSDKTHTCPPCPAPEAAGGPSVFLFPPKPKDTLMISRTPEVTCVVVDVSHEDPEVKFNWYVDGVEVHNAKTKPREEQYASTYRVVSVLTVLHQDWLNGKEYKCAVSNKALPAPIEKTISKAKGQPREPQVYTLPPSRDELTKNQVSLTCLVKGFYPSDIAVEWESNGQPENNYKTTPPVLDSDGSFFLYSKLTVDKSRWQQGNVFSCSVMHEALHNHYTQKSLSLSPGK | 14.9 | 
B1 |  | 11.2
